Data as given in PMC11100904, “How short peptides can disassemble ultra-stable tau fibrils extracted from Alzheimer’s disease brain by a strain-relief mechanism” (Research Square, 2024).

Biological target: T1, 15N,13C-labeled tau K18+ (residues Gln244-Glu380 of 4R tau) (UniProt P10636-8 244-380)
T1 construct: Uniformly 15N,13C isotope-labelled for NMR; purified as the unlabeled protein; also called tau K18+ monomer; tau monomers; source: E. coli BL21-Gold, M9 medium with 15NH4Cl and 13C-glucose, purified (boiling, HiTrap SP HP ion exchange, Superdex 75)
Assay: NMR titration; 1H-15N HSQC, 0.1 mM 15N,13C-labeled tau K18+ in 100 mM KCl, 20 mM NaH2PO4, 1 mM TCEP, 5%/95% D2O/H2O, pH 7.0, without or with 1 mM peptide (10-fold molar excess), 25 °C; chemical shift perturbation; one concentration, changes seen over time (2.5 months at 4 °C for D-TLKIVWI)
Conditions: both partners purified

T1 sequence (P10636 561-697): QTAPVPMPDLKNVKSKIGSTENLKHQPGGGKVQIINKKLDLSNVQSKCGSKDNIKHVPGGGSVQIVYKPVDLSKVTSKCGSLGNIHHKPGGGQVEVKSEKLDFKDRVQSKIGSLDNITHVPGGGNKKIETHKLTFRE

B1: L-TLKIVWI (peptide)
peptide: TLKIVWI
notes: L-enantiomer of the designed peptide D-TLKIVWI; All L-amino acids; also called L-TLKIVWX (X = I); source: synthetic peptide (GenScript, purified to ≥98%)
B1: binds.
